Common to all, as to assay: Kinase panel residual activity
Common to all, as to type: biochemical
Conditions in all cases: compound at 1 micromolar

Data set [1] deals with MARK2 (Homo sapiens, UniProt Q7KZI7).
Data set [2] deals with PKBb (Homo sapiens, UniProt P31751).
Data set [3] deals with T1, PKD1 (Homo sapiens, UniProt Q15139).
T1 sequence (Q15139 1-912): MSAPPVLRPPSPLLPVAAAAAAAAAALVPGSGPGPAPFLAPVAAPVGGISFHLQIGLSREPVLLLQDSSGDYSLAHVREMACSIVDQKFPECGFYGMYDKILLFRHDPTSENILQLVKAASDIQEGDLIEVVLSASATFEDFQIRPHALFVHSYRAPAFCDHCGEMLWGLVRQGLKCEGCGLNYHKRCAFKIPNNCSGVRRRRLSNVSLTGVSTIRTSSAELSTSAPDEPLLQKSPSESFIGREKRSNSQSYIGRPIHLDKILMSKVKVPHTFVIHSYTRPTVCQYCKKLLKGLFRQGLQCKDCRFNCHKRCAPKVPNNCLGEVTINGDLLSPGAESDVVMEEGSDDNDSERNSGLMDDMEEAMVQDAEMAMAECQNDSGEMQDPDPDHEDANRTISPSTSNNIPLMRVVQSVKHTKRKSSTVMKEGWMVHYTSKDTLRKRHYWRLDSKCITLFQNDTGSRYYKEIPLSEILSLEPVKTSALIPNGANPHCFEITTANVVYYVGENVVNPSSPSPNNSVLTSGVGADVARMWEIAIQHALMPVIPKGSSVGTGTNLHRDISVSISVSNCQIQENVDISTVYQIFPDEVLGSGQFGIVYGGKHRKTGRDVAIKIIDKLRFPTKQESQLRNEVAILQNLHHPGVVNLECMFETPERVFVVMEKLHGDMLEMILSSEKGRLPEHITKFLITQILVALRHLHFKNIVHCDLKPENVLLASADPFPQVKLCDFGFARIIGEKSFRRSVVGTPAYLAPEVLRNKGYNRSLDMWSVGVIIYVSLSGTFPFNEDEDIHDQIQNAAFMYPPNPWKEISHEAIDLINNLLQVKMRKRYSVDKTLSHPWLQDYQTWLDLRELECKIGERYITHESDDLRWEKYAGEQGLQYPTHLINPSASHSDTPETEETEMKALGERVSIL

The target in data set [4] is T2, IKKe (Homo sapiens, UniProt Q14164).
T2 sequence (Q14164 1-716): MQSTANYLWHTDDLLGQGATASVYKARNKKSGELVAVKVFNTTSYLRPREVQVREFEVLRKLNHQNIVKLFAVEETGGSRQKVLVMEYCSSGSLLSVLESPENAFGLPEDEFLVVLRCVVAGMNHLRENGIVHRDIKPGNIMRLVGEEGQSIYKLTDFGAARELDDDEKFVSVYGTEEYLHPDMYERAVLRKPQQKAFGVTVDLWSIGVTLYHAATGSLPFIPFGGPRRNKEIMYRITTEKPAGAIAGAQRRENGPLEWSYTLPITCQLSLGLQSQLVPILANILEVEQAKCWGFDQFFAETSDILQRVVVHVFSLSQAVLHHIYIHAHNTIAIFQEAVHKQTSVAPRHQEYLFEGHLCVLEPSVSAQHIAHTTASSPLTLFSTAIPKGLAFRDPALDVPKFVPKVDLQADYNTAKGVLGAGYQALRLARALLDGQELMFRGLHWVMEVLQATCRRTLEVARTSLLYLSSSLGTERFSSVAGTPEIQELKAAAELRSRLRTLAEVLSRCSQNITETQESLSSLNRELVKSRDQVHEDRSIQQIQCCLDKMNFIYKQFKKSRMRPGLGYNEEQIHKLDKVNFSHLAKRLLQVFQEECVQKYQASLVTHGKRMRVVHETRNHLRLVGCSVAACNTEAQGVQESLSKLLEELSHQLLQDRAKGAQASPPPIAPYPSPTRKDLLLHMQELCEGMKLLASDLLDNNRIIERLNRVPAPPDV

The target in data set [5] is T3, ZAP70 (Homo sapiens, UniProt P43403).
T3 sequence (P43403 1-619): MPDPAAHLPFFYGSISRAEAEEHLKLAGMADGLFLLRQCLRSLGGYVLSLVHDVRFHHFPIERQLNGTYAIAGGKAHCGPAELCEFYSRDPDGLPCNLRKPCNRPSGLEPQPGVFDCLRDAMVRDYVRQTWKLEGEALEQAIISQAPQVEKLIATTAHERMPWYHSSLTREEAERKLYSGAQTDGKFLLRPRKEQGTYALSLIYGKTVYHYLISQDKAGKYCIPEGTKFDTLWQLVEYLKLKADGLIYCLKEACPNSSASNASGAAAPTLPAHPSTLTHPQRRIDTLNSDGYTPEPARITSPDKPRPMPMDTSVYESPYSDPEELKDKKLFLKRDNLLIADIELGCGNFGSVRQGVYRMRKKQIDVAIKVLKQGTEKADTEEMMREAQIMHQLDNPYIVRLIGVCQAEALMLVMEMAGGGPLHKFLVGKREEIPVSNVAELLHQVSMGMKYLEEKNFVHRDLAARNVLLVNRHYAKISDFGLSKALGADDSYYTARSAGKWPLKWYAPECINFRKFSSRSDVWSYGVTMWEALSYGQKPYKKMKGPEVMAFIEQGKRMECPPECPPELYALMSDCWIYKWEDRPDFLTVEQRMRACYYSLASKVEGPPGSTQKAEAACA

Our source for the remaining activity values is patent publication US9176064B2, “Bisubstrate fluorescent probes for protein kinase CK2” (University of Tartu, priority 2012, dated 2015).

Where a SMILES comes first, the peptide text is derived from it. [ ]: non-standard residue; d: D form. The star is where a group is joined. X1 = O=C(CCCCCCCn1cnc2c(Br)c(Br)c(Br)c(Br)c21)*

PKBb, sequence (P31751 whole entry): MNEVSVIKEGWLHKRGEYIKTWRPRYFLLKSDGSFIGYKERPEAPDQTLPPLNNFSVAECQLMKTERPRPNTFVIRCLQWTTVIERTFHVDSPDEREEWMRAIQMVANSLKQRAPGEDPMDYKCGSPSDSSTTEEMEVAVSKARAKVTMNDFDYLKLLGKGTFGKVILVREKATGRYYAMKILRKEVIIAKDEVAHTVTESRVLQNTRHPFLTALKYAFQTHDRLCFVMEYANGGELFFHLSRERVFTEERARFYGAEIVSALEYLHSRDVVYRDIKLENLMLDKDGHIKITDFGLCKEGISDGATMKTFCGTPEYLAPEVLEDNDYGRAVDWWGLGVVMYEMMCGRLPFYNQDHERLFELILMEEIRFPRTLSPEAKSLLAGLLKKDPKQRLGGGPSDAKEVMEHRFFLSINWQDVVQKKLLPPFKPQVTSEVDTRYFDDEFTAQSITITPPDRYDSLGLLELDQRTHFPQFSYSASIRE
MARK2, sequence (Q7KZI7 whole entry, species assumed): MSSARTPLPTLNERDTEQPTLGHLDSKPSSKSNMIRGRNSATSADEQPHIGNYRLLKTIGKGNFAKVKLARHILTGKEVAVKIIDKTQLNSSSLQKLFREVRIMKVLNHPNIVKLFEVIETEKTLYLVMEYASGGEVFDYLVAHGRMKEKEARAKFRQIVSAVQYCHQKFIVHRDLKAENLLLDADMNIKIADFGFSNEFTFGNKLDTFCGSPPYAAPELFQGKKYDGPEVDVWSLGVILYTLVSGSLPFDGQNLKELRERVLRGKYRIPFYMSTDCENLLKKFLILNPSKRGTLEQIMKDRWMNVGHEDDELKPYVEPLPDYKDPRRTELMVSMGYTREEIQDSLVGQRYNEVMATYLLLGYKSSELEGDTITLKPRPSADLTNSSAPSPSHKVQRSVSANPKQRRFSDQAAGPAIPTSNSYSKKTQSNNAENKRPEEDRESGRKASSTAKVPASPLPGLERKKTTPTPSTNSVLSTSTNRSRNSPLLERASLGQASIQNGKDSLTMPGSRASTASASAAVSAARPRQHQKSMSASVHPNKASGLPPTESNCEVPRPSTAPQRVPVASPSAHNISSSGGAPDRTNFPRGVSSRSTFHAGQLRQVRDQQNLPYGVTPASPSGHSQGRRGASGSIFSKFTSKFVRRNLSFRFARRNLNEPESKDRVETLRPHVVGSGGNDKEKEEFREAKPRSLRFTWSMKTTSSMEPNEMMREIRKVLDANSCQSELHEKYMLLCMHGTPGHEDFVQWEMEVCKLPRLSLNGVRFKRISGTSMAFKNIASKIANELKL

A word on the remaining activity: it is the signal under treatment as a percentage of the control signal. Read a high remaining activity as a small loss of activity. On to `NCCCC[C@H](NC(=O)[C@H](CC(=O)O)NC(=O)[C@H](CC(=O)O)NC(=O)[C@H](CC(=O)O)NC(=O)[C@H](CC(=O)O)NC(=O)[C@H](CC(=O)O)NC(=O)[C@@H](CC(=O)O)NC(=O)CCCCCCCn1cnc2c(Br)c(Br)c(Br)c(Br)c21)C(=O)O` [TBBI-OcA-(D-Asp)-(L-Asp)5-(L-Lys)-OH] (X1-[dD]DDDDDK-OH), for which the remaining activity at 1 µM in data set [1] was 66%; in data set [2] it was 72%; in data set [3] it was 72%; in data set [4], 84%; in data set [5], 97%.
